# Experimental data taken from publication PMC4966575.
# Target: scFv 10-94 P (murine)
# Assay: SPR
substance,measurement,value
"Protein L (PpL), free (from UniProt Q51918 1-992) (natural protein)",KD1 (bivalent model),7.5 nM
